Data published in patent publication US20050191294A1, “Compositions and methods of use of targeting peptides for diagnosis and therapy” (Board of Regents, The University of Texas System, priority 2003, published 2005).

Biological target: recombinant gst-fused prohibitin [GST: P08515]
Test: phage binding to gst-prohibitin immobilized on microtiter plate, 10^9 TU, bound TU counted

Chain of recombinant gst-fused prohibitin [GST: P08515] (P08515 whole entry, the tested form may be a part): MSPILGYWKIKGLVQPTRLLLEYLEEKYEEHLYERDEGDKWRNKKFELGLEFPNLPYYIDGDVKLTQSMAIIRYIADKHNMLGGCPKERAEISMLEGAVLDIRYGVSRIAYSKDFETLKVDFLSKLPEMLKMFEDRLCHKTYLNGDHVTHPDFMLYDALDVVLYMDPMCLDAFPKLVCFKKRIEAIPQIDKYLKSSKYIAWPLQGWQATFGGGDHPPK

Binder: CKGGRAKDC (peptide, not shown: large carriers, modifications not checked) [… (SEQ ID NO:4)-displaying phage]
- fold binding relative to control insertless phage: 8 fold
